Measured values from IntAct's records for PubMed 20080707.

B1: Protein-glutamine gamma-glutamyltransferase 2 (Homo sapiens), P21980 (parent)
chain: MAEELVLERCDLELETNGRDHHTADLCREKLVVRRGQPFWLTLHFEGRNYEASVDSLTFSVVTGPAPSQEAGTKARFPLRDAVEEGDWTATVVDQQDCTLSLQLTTPANAPIGLYRLSLEASTGYQGSSFVLGHFILLFNAWCPADAVYLDSEEERQEYVLTQQGFIYQGSAKFIKNIPWNFGQFEDGILDICLILLDVNPKFLKNAGRDCSRRSSPVYVGRVVSGMVNCNDDQGVLLGRWDNNYGDGVSPMSWIGSVDILRRWKNHGCQRVKYGQCWVFAAVACTVLRCLGIPTRVVTNYNSAHDQNSNLLIEYFRNEFGEIQGDKSEMIWNFHCWVESWMTRPDLQPGYEGWQALDPTPQEKSEGTYCCGPVPVRAIKEGDLSTKYDAPFVFAEVNADVVDWIQQDDGSVHKSINRSLIVGLKISTKSVGRDEREDITHTYKYPEGSSEEREAFTRANHLNKLAEKEETGMAMRIRVGQSMNMGSDFDVFAHITNNTAEEYVCRLLLCARTVSYNGILGPECGTKYLLNLNLEPFSEKSVPLCILYEKYRDCLTESNLIKVRALLVEPVINSYLLAERDLYLENPEIKIRILGEPKQKRKLVAEVSLQNPLPVALEGCTFTVEGAGLTEEQKTVEIPDPVEAGEEVKVRMDLLPLHMGLHKLVVNFESDKLKAVKGFRNVIIGPA

Variants of: B1
Details: with KRT19, P08727
KRT19, P08727, sequence (P08727 whole entry): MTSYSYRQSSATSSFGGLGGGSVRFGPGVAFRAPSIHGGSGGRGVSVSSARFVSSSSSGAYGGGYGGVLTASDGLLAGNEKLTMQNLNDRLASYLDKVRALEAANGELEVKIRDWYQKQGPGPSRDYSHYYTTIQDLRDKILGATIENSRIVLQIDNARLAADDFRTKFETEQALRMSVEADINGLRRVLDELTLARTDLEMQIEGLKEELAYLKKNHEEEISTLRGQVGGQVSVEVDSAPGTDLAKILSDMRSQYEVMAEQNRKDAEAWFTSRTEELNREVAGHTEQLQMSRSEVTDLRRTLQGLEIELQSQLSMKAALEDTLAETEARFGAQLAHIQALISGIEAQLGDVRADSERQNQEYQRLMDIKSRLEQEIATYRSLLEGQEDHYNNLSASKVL

| effect of a mutation on the interaction | Variant |
| --- | --- |
| disrupting interaction | C277V |
